In test [1] the test system is bacteria and plants. Conditions: statement referring to earlier patent applications; cited from earlier work.
Test [2] deals with E. coli cells. In words: Growth of E. coli expressing EPSP synthase genes on M63 agar medium containing glyphosate. Conditions: for Glyphosate resistance conferred by expression in E. coli (summary in words): M63 agar, various concentrations of glyphosate, vs pAX701 glyphosate-sensitive control. Format: cell-based. An excerpt:
The coding sequence of the Clostridium acetobutylicum EPSP synthase gene (SEQ ID NO:5), identified in Genbank accession number NC—003030, was PCR amplified using the following primers: […] (upper) (SEQ ID NO:42) and […] (lower) (SEQ ID NO:43). The upper primer changed the start codon to ATG from TTG, as it naturally occurs. The resultant 1.3 kb product was digested with BamH I and Asc I, and ligated into the same sites of a modified version of pUC 18 and transformed into the E. coli strain DH5a. A positive clone containing the EPSP synthase insert was identified by restriction digest and named pAX714. A pAX714 colony was struck onto minimal M63 media containing IPTG, carbenicillin and 0, 20, 50 or 100 mM glyphosate, and the plates were incubated at 37° C. […] The encoded EPSP synthase (SEQ ID NO:6) was named grg10.
Plasmids pAX714 and pAX716, containing grg10 and grg20, respectively, were transformed into E. coli cells and streaked onto M63 agar medium containing IPTG, carbenicillin, and various concentrations of glyphosate. Colonies of pAX701 (containing the wild-type E. coli aroA gene) were used as glyphosate-sensitive controls.
Plasmids pAX723 and pAX72^4, containing grg21 and grg22, respectively, were transformed into E. coli cells and streaked onto M63 agar medium containing IPTG, carbenicillin, and various concentrations of glyphosate. Colonies of pAX701 (containing the wild-type E. coli aroA gene) were used as glyphosate-sensitive controls.

B1: GRG1: EPSP synthase (SEQ ID NO:2) that confers glyphosate resistance, from U.S. application 10/739,610 (protein, listed as Enterobacteriaceae sp.)
chain: VKVTIQPGDLTGIIQSPASKSSMQRACAAALVAKGISEIINPGHSNDDKAARDIVSRLGARLEDQPDGSLQITSEGVKPVAPFIDCGESGLSIRMFTPIVALSKEEVTIKGSGSLVTRPMDFFDEILPHLGVKVKSNQGKLPLVIQGPLKPADVTVDGSLSSQFLTGLLLAYAAADASDVAIKVTNLKSRPYIDLTLDVMKRFGLKTPENRNYEEFYFKAGNVYDETKMQRYTVEGDWSGGAFLLVAGAIAGPITVRGLDIASTQADKAIVQALMSANAGIAIDAKEIKLHPADLNAFEFDATDCPDLFPPLVALASYCKGETKIKGVSRLAHKESDRGLTLQDEFGKMGVEIHLEGDLMRVIGGKGVKGAEVSSRHDHRIAMACAVAALKAVGETTIEHAEAVNKSYPDFYSDLKQLGGVVSLNHQFNFS
Consider B1, for which the “Glyphosate resistance or tolerance conferred on organisms (in words)” value in test [1] was “confers glyphosate resistance upon both bacteria and plants”.

B2: grg21: EPSP synthase of Fusobacterium nucleatum (SEQ ID NO:8), synthetic gene in plasmid pAX723 (protein, listed as Fusobacterium nucleatum)
chain: MRNMNKKIIKADKLVGEVTPPPSKSVLHRYIIASSLAKGISKIENISYSDDIIATIEAMKKLGANIEKKDNYLLIDGSKTFDKEYLNNDSEIDCNESGSTLRFLFPLSIVKENKILFKGKGKLFKRPLSPYFENFDKYQIKCSSINENKILLDGELKSGVYEIDGNISSQFITGLLFSLPLLNGNSKIIIKGKLESSSYIDITLDCLNKFGINIINNSYKEFIIEGNQTYKSGNYQVEADYSQVAFFLVANSIGSNIKINGLNVNSLQGDKKIIDFISEIDNWTKNEKLILDGSETPDIIPILSLKACISKKEIEIVNIARLRIKESDRLSATVQELSKLGFDLIEKEDSILINSRKNFNEISNNSPISLSSHSDHRIAMTVAIASTCYEGEIILDNLDCVKKSYPNFWEVFLSLGGKIYEYLG
For B2, in test [2], the “Glyphosate resistance conferred by expression in E. coli (summary in words)” value (shortened to “Glyphosate resistance conferred”) was “confers resistance to high levels of glyphosate”.

B3: grg22: EPSP synthase of Methanopyrus kandleri (SEQ ID NO:10), synthetic gene in plasmid pAX724 (protein, listed as Methanopyrus kanleri)
chain: MKRVELEGIPEVRGTVCPPPSKSGSHRALIAASLCDGSTELWNVLDAEDVRATLRLCRMLGAEVDVDGEERLEATVSGFGDSPRAPEDVVDCGNSGTTLRLGCGLAALVEGTTILTGDDSLRSRPVGDLLAALRSLGVDARGRVVRGEEYPPVVISGRPLRERVAVYGDVSSQFVSALLFLGAGLGALRVDVVGDLRSRPYVDMTVETLERFGVSVVREGSSFEVEGRPRSPGKLRVENDWSSAGYFVALGAIGGEMRIEGVDLDSSHPDRRIVEITREMGAEVRRIDGGIVVRSTGRLEGVEVDLSDSPDLVPTVAAMACFAEGVTRIENVGHLRYKEVDRLRALAAELPKFGVEVREGKDWLEIVGGEPVGARVDSRGDHRMAMALAVVGAFARGKTVVERADAVSISYPRFWEDLASVGVPVHSV
For the molecule B3, the “Glyphosate resistance conferred” value in test [2] is listed as “confers resistance to high levels of glyphosate”.

B4: grg20: EPSP synthase of Sulfolobus solfataricus (SEQ ID NO:12), expressed from plasmid pAX716 (protein, listed as Solfolobus solfataricus)
chain: MIVKIYPSKISGIIKAPQSKSLAIRLIFLSLFTRVYLHNLVLSEDVIDAIKSVRALGVKVKNNSEFIPPEKLEIKERFIKLKGSATTLRMLIPILAAIGGEVTIDADESLRRRPLNRIVQALSNYGISFSSYSLPLTITGKLSSNEIKISGDESSQYISGLIYALHILNGGSIEILPPISSKSYILLTIDLFKRFGSDVKFYGSKIHVNPNNLVEFQGEVAGDYGLASFYALSALVSGGGITITNLWEPKEYFGDHSIVKIFSEMGASSEYKDGRWFVKAKDKYSPIKIDIDDAPDLAMTIAGLSAIAEGTSEIIGIERLRIKESDRIESIRKILGLYGVGSEVKYNSILIFGINKGMLNSPVTDCLNDHRVAMMSSALALVNGGVITSAECVGKSNPNYWQDLLSLNAKISIE
Take B4: the “Glyphosate resistance conferred” value in test [2] is “confers resistance to high levels of glyphosate”.

B5: grg10: EPSP synthase of Clostridium acetobutylicum (SEQ ID NO:6), expressed from plasmid pAX714 (protein, listed as Clostridium acetobutylicum)
chain: MNCVKINPCCLKGDIKIPPSKSLGHRAIICAALSEEESTIENISYSKDIKATCIGMSKLGALIIEDAKDNSTLKIKKQKLVSKEKVYIDCSESGSTVRFLIPISLIEERNVVFDGQGKLSYRPLDSYFNIFDEKEIAYSHPEGKVLPLQIKGRLKAGMFNLPGNISSQFISGLMFSLPFLEGDSIINITTNLESVGYVDMTIDMLKKFGIEIENKAYKSFFIKGNQKCKGTKYKVEGDFSQAAFWLSAGILNGNINCKDLNISSLQGDKVILDILKKMGGAIDEKSFSSKKSHTHGIVIDASQCPDLVPILSVVAALSEGTTKIVNAARLRIKESDRLKAMATELNKLGAEVVELEDGLLIEGKEKLKGGEVESWNDHRIAMALGIAALRCEESVTINGSECVSKSYPQFWSDLKQLGGDVHEWSLGE
In the case of B5, in test [2] (E. coli DH5a on minimal M63 media, 37° C.), the “Glyphosate concentration to which the encoded EPSP synthase is resistant” value is given as “at least 100 mM”. In test [2], the “Glyphosate resistance conferred” value was “confers resistance to high levels of glyphosate”. In test [2] (minimal M63 media with IPTG, carbenicillin and 0, 20, 50 or 100 mM glyphosate, 37° C.), the “Growth of pAX714-containing cells on glyphosate” value is “grew very well on all concentrations of glyphosate tested”.

B6: GRG23: EPSP synthase (SEQ ID NO:14) isolated from a bacterial strain exhibiting strong glyphosate resistance (protein, listed as Arthrobacter globiformis)
chain: MALERGQHGRSRRLFGASLERITMETDRLVIPGSKSITNRALLLAAAAKGTSVLVRPLVSADTSAFKTAIQALGANVSADGDNWVVEGLGQAPHLDADIWCEDAGTVARFLPPFVAAGQGKFTVDGSEQLRRRPLRPLVDGIRHLGARVSSEQLPLTIEASGLAGGEYEIEAHQSSQFASGLIMAAPYARQGLRVRIPNPVSQPYLTMTLRMMRDFGLETSTDGATVSVPPGRYTARRYEIEPDASTASYFAAASAVSGRSFEFQGLGTDSIQGDTSFFNVLGRLGAEVHWAPNSVTISGPERLNGDIEVDMGEISDTFMTLAAIAPLADGPITITNIGHARLKESDRISAMETNLRTLGVQTDVGHDWMRIYPSTPHGGRVNCHRDHRIAMAFSILGLRVDGITLDDPQCVGKTFPGFFDYLGRLFPEKALTLPG
modifications: VARIANT (0)...(0) Strain ATX21308
As for B6, the “Glyphosate resistance or tolerance conferred on organisms (in words)” value in test [1] is recorded as “confers glyphosate tolerance”.
